Target: RSV strain 18537 pre-fusion F (Ds-Cav1) (human respiratory syncytial virus subgroup B strain 18537) (UniProt P13843)
Experiment: ELISA, F protein coated

Chain of RSV strain 18537 pre-fusion F (Ds-Cav1) (human respiratory syncytial virus subgroup B strain 18537) (P13843 26-513): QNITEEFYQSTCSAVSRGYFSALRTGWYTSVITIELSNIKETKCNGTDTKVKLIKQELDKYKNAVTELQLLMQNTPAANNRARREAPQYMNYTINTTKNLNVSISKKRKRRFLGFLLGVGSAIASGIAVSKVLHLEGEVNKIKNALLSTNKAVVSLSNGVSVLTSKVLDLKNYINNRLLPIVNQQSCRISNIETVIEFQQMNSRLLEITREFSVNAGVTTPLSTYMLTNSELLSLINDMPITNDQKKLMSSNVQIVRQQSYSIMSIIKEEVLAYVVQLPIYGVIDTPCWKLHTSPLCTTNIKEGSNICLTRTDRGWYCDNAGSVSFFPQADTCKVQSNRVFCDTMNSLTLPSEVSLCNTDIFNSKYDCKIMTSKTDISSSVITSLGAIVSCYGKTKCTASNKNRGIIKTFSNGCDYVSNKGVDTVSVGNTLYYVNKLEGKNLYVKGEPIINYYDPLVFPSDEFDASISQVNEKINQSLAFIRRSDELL

Substance	EC50 [µg/mL]
motavizumab (antibody)	0.022
palivizumab (antibody)	0.046
